Consider twelve substances from patent publication US20250092146A1, “ANTI-CCR8 ANTIBODIES, CONJUGATES, AND USES THEREOF” (Abilita Bio, Inc., priority 2023, published 2025).

As a reminder, the EC50 is the concentration needed to bring the measured effect to its halfway point.

Where no end group is shown, it is not given here.

In this assay the target is T1, hCCR8 (Homo sapiens, UniProt P51685).
T1 construct: expressed in transfected cells
Description: Flow cytometry binding of VHH-Fc fusion antibodies to hCCR8 on stably transfected HEK293 cells. To be noted: Table 12; for EC50: VHH-2 CDR alanine mutants as human Fc fusions, HEK293 hCCR8; for % Bmax: normalized to wild type VHH-2-Fc. On the procedure:
VHH-Fc fusion antibodies were evaluated for their ability to bind to hCCR8 on stably transfected HEK293 cells by means of flow cytometry. Cells were incubated with different concentrations of the bivalent VHH-Fc fusions for 60 minutes at 4° C., followed by two washes with FACS buffer, followed by 30 minutes incubation at 4° C. with the Zenon R-Phycoerythrin Anti-human IgG (ThermoFisher Scientific, #Z-25455), and two additional washing steps. Data were plotted and fit using GraphPad Prism software. EC50 and Bmax values individual antibodies were calculated from the resulting dose-response curves. Bivalent VHH-Fc fusions (Seq ID NOs: 31, 33, and 87-103) of 19 different VHH domains (SEQ ID NOs: 27, 28, and 70-86) were tested for cell binding and results are shown in Table 7. […]
VHH-Fc fusion DNA constructs were then generated comprising encoding humanized VHH sequences (SEQ ID NOs: 106-111) fused in frame to the human IgG1 (SEQ ID NO: 34) directly to the short hinge sequence in the pFuse expression vector, and were expressed, purified and analyzed for binding to HEK293 cells expressing human CCR8 as in Example 5. Binding curves for VHH-Fc antibodies comprised of parental VHH-1 and the humanized VHH derivatives VHH-1.2-Fc and VHH-1.3-Fc are shown in FIG. 9A. Binding curves for VHH-Fc antibodies comprised of parental VHH-2 and the humanized VHH derivatives VHH-2-Fc, VHH-2.2-Fc and VHH-2.3-Fc, are shown in FIG. 9B. Cell binding EC50 values, normalized Bmax (relative to respective parental clone) data and humanizing mutations are shown in Table 10 below.
Approaches such as in vitro affinity maturation and rational mutagenesis can be performed to regain binding affinity and/or stability lost through humanization. In vitro affinity maturation generally involves building and amino acid substitution library where amino acid positions are varied across the CDRs and/or framework at a defined set of positions using sets of amino acids chosen to introduce new chemical diversity. The paratope residues within the CDR regions are of course key to antigen binding and care must be taken not to disrupt important structures while attempting to evolve improve antibody behavior. One approach to identify positions that are important to the maintenance of binding properties is to perform paratope mapping using single scanning alanine substitutions across antibody CDR regions. In this approach, residues that are critical to the maintenance of antibody binding to the antigen can be identified and at the same time permissive sites can be identified where it may be possible to make substitutions of other amino acids desirable for subsequent affinity maturation library construction. Site directed mutagenesis was used to make single alanine substitutions at each residue in the CDRs of VHH-1 (SEQ ID NO: 27) and VHH-2 (SEQ ID NO: 28). Changes in VHH-1 CDR amino acids to alanine are indicated in Table 11 (SEQ ID NOs: 112-137) and for VHH-2 CDRs (SEQ ID NO: 138-162) in Table 12. Mutation positions and residue changes to alanine with respect to the in the parental VHH sequences are referenced by their IMGT position. VHH domains containing the indicated modified CDR-1, CDR-2 or CDR-3 domains were used to construct Fc fusions by direct grafting to the short hinge of the human Fc domain (SEQ ID NO: 34). VHH-Fc constructs were expressed, purified and analyzed for binding to HEK293 cells expressing hCCR8 and the results are reported in Table 11 and Table 12. EC50 values are reported for each Fc fusion antibody containing a modified CDR, along with its respective Bmax value normalized to the to the matched wild type VHH-1-Fc or VHH-2-Fc fusion antibody.

T1 sequence (P51685 whole entry): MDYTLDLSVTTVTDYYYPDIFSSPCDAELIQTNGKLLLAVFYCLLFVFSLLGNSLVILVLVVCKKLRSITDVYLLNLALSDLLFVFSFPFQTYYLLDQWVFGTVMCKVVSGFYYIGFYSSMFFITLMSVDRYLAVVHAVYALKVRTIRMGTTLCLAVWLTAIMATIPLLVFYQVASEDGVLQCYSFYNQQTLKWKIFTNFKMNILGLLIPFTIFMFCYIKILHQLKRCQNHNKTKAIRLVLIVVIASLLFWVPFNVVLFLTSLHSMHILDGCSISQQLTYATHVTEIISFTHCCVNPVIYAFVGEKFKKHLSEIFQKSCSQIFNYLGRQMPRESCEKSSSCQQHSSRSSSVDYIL

For the substance “VHH-2 S113A: VHH-2 alanine mutant, CDR3 QARMAMGSAQVVY, fused to human IgG1 Fc (also: CDR3 of VHH-2 in VHH fused to human IgG1 Fc)”, the EC50 came out at 0.9 nM and the “% Bmax” value is given as 48%.
Take “VHH-2 Y117A: VHH-2 alanine mutant, CDR3 QARMAMGSSQVVA, fused to human IgG1 Fc (also: CDR3 of VHH-2 in VHH fused to human IgG1 Fc)”: it took 0.86 nM to reach a half-maximal effect (EC50) and the “% Bmax” value is 76%.
With “VHH-2 S28A: VHH-2 alanine mutant, CDR1 GATSTINR, fused to human IgG1 Fc (also: CDR1 of VHH-2 in VHH fused to human IgG1 Fc)”, a half-maximal response (EC50) required 1.61 nM and the “% Bmax” value is 68%.
As to “VHH-2 S58A: VHH-2 alanine mutant, CDR2 TSARTSP, fused to human IgG1 Fc (also: CDR2 of VHH-2 in VHH fused to human IgG1 Fc)”, the EC50 worked out at 1.02 nM and the “% Bmax” value amounted to 65%.
As for “VHH-2 S30A: VHH-2 alanine mutant, CDR1 GSTATINR, fused to human IgG1 Fc (also: CDR1 of VHH-2 in VHH fused to human IgG1 Fc)”, the EC50 amounted to 1.62 nM and the “% Bmax” value stood at 66%.
For the substance “VHH-2 T35A: VHH-2 alanine mutant, CDR1 GSTSAINR, fused to human IgG1 Fc (also: CDR1 of VHH-2 in VHH fused to human IgG1 Fc)”, the EC50 came out at 0.87 nM and the “% Bmax” value stood at 65%.
“VHH-2 T59A: VHH-2 alanine mutant, CDR2 TSSRASP, fused to human IgG1 Fc”: the EC50 is 1.48 nM and the “% Bmax” value worked out at 74%.
Taken in the same sequence, the figures for “VHH-2 T29A: VHH-2 alanine mutant, CDR1 GSASTINR, fused to human IgG1 Fc (also: CDR1 of VHH-2 in VHH fused to human IgG1 Fc)” were 1.43 nM and 65%.
For the substance “VHH-2 V116A: VHH-2 alanine mutant, CDR3 QARMAMGSSQVAY, fused to human IgG1 Fc (also: CDR3 of VHH-2 in VHH fused to human IgG1 Fc)”, the EC50 worked out at 0.83 nM and the “% Bmax” value came to 72%.
Taken in the same sequence, the figures for “VHH-2 V115A: VHH-2 alanine mutant, CDR3 QARMAMGSSQAVY, fused to human IgG1 Fc (also: CDR3 of VHH-2 in VHH fused to human IgG1 Fc)” were 1.34 nM and 11%.
Taken in the same sequence, the figures for “VHH-2 S63A: VHH-2 alanine mutant, CDR2 TSSRTAP, fused to human IgG1 Fc (also: CDR2 of VHH-2 in VHH fused to human IgG1 Fc)” were 1.08 nM and 70%.
The like results for “VHH-2 S57A: VHH-2 alanine mutant, CDR2 TASRTSP, fused to human IgG1 Fc (also: CDR2 of VHH-2 in VHH fused to human IgG1 Fc)” were, in that order, 1.03 nM and 69%.
